These are literature values, as cited in article PMC6952583 (Chembiochem : a European journal of chemical biology, 2019).

The target in this data set is ComD2 receptor (Streptococcus pneumoniae serotype 4, UniProt A0A0H2US84). The conditions noted are these: read-out: ComD2 EC50; TIGR4pcomX::lacZ reporter strain; ref [20].

As a reminder, the EC50 is the concentration needed to bring the measured effect to its halfway point. With “CSP2(15): truncated version of CSP2, starting scaffold (EMRISRIILDFLFLR)”, the EC50 was 21.9 nM.
